Measurements as given in the supplement of paper PMC10567573.
± gives the standard deviation.

Test: protein stability index of a GFP-peptide fusion (GPS, HEK-293T) (PSI 1-6); higher = more stable
[1] = treatment: DMSO, c terminus: a fixed tail appended
[2] = treatment: MLN4924 1 uM, 8 h, c terminus: a fixed tail appended
[3] = treatment: DMSO, c terminus: native
[4] = treatment: MLN4924 1 uM, 8 h, c terminus: native
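Note: 24-mer peptide tiles fused after GFP, lentivirally expressed, FACS-sorted into six equal bins by GFP/DsRed ratio, decoded by Illumina sequencing, PSI is the read-weighted mean bin number.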

Sequence	protein stability index [1]	protein stability index [2]	protein stability index [3]	protein stability index [4]
ECPSMGTNEAACLLDNPLCADVLF [RHOBTB1]	3.42 ± 0.34	3.94 ± 0.48	–	–
LIGLPPEDDWPRDVSLPRGAFPPR [CDK4]	3.49 ± 0.32	3.69 ± 0.23	–	–
GFEHYDLFFIDGSTPSDNIVRRFL [CDC14A]	2.12 ± 0.24	2.16 ± 0.25	–	–
GCSQFRLAVLDWNQRAMDLYKALG [SAT2]	2.2 ± 0.39	2.02 ± 0.18	–	–
LIRSLFHGFLFMIFQIGVLGFGPT [SOAT1]	3.52 ± 0.5	3.28 ± 0.63	–	–
ATQMMVDIDGDVLVFLELAQFHCA [RHOBTB2]	3.08 ± 0.33	2.89 ± 0.75	–	–
AGLNKDKETEERTDGERVAEVAPE [SDE2]	5.46 ± 0.33	5.63 ± 0.16	–	–
GIPGWGFSGWISALVVPKGNTAVS [SCAMP3]	2.78 ± 0.72	2.41 ± 0.52	–	–
LICFCRESRYMDQWVPVINLPER [GADD45A]	–	–	2.98 ± 1.1	2.87 ± 0.84
EFDLSPLNLDIGQVYKETRLFLDG [AASDHPPT]	2.89 ± 0.28	2.96 ± 0.27	–	–
LNATSKFMEFYQDVKDWWLFGFYF [EDNRA]	2.49 ± 0.86	2.13 ± 0.37	–	–
QFHALQSKLEERFGPDSKSSALAC [NCF4]	3.5 ± 0.28	3.6 ± 0.54	–	–
GVIQSVSSWKHGSGTQYVSTRQTQ [C18orf25]	3.19 ± 0.11	3.52 ± 0.35	–	–
SGPQPRLPPCLLPLSPPTAPDRAT [TRIB3]	4.48 ± 0.27	4.61 ± 0.28	–	–
NCPWPMSCPGSSYRTVVRPTYKVM [EMID1]	2.62 ± 0.26	2.47 ± 0.4	–	–
ELSPPLSPASHVDVDLTIHGRHID [FOXJ1]	4.82 ± 0.18	4.84 ± 0.064	–	–
GLGCKDLDLIFHVALPTEAEFQLV [TENT5C]	2.26 ± 0.21	2.28 ± 0.45	–	–
TIDNDIVSMEIFFKAWLHNSGTDQ [M1AP]	2.5 ± 0.23	2.36 ± 0.084	–	–
QPKQLIVDDLKGSLKEDLTQHKFI [SPRY1]	4.14 ± 0.13	4.2 ± 0.22	–	–
MMEEIDRFQDPAAASISDGDCDAR [FAM219A]	5.38 ± 0.16	5.42 ± 0.11	–	–
LCKNLNREAQQYSEALASTRILKH [GLIPR2]	3.57 ± 0.32	3.74 ± 0.33	–	–
CSKVSELTERLKVLEAKMTMLTVI [EMID1]	2.63 ± 0.73	2.46 ± 0.38	–	–
GTNAWEEIATKPHEKIGFPAARRC [KLHDC10]	3.96 ± 0.22	3.91 ± 0.37	–	–

Sequence	protein stability index [1]	protein stability index [2]	protein stability index [3]	protein stability index [4]
AAENEFVLLKKDVDAAYANKVELQ [KRT71]	4.7 ± 0.21	4.54 ± 0.39	–	–
LYGALNPQYEFKEAAGSFTSSLAQ [IRX6]	2.64 ± 0.17	2.55 ± 0.27	–	–
LFLKEGACDELFSYLIEKVKRKKN [PRAME]	2.18 ± 0.5	2.21 ± 0.27	–	–
HVLALGLGIYIGKRLSTPSASTY [BNIP3L]	–	–	3.43 ± 0.86	3.2 ± 0.64
NSAHHCVVEVENFLFVLGGEDQWN [KLHL14]	2.12 ± 0.27	2.07 ± 0.3	–	–
KVQELMSTHELEKKELEENFEKLR [MTUS2]	4.97 ± 0.54	5.14 ± 0.23	–	–
MNALLEQKEQQERLREAAALGDIR [ANKRD40]	4.66 ± 0.24	4.76 ± 0.18	–	–
RVPSFESFEDDCSQSLCLNKPTMS [ETS2]	4.6 ± 0.16	4.55 ± 0.16	–	–
EPPHNLFCAPGSWEWNELDHIMEI [SERTAD3]	2.93 ± 0.13	3.07 ± 0.25	–	–
ICMAQIAYSGNTSNLSYHLEKNHP [ZBED1]	2.3 ± 0.24	2.38 ± 0.26	–	–
LGTKSCSSSCAVHDLIFWRDVKKT [RTN3]	2.29 ± 0.45	2.09 ± 0.33	–	–
PVAMRVAKLAINQGMEVDLVTGLA [AUH]	2.65 ± 0.29	2.92 ± 0.5	–	–
NHILECEFYLLELMDCCLIVYHPY [CCNC]	3.12 ± 1	2.78 ± 0.95	–	–
ALSPKTTITMAHLLAAREDLSKII [FAM98B]	2.29 ± 0.27	2.55 ± 0.065	–	–
SYSFQNPSSFDPSMLLQRFSVAPH [RNF180]	2.58 ± 0.28	2.68 ± 0.23	–	–
GYNLRALAEGVSASLHTLLGDPCP [HDAC6]	2.6 ± 0.31	2.64 ± 0.2	–	–
SDSLLQSWNSQSSLLDVQRVPSFE [ETS2]	3.92 ± 0.3	3.76 ± 0.17	–	–
VQLATLAQRVKEVLPHVPLGVIQR [AUP1]	2.51 ± 0.16	2.19 ± 0.29	–	–
SNYSLPPPLPTYHVLLEGEGLGQS [TRIM29]	3.67 ± 0.23	3.68 ± 0.22	–	–
RVLDGKEAKAVGLISHVLEQNQEG [AUH]	4.53 ± 0.38	4.95 ± 0.088	–	–
SKLKGAAVKLADFGLAIEVEGEQQ [CAMK2A]	4.06 ± 0.11	4.4 ± 0.31	–	–
HCHKRRTRSCSSASSRSQQSSKRS [CLK3]	5.19 ± 0.26	5.06 ± 0.063	–	–
LASISTYGFRGEALASISHVAHVT [MLH1]	2.19 ± 0.48	2.19 ± 0.23	–	–

Sequence	protein stability index [1]	protein stability index [2]	protein stability index [3]	protein stability index [4]
DPDGEEGSSIPWNHLPDPEIFRQR [ZNF24]	4.97 ± 0.45	5.02 ± 0.15	–	–
LTKAATSGVGIDGEVLSYLELAQF [RHOBTB1]	2.44 ± 0.18	2.47 ± 0.43	–	–
GVSFQAISSMADFWDFAQGPLLDS [PKD2L1]	2.4 ± 0.29	2.87 ± 0.32	–	–
AKFWPRRRFNFFVLENNLEAVARH [DNAAF3]	2.13 ± 0.33	2.09 ± 0.19	–	–
LPDSPLRFDGLPAVLGFPGFSSGR [TRIM15]	2.87 ± 0.39	3.18 ± 0.41	–	–
YSLAPNTPINQNVSLHQASLGGCS [NFE2L1]	3.54 ± 0.1	3.65 ± 0.18	–	–
PIIYFNDYWNLQKDYYPINESLAS [CLPTM1]	2.71 ± 0.85	2.06 ± 0.2	–	–
IEVQPNFEVPYYNRGLILYRLGYF [TTC32]	3.17 ± 0.4	2.73 ± 0.38	–	–
SEVSFEGAYGNLKRLYDKAAKMYH [SMG5]	2.44 ± 0.29	2.23 ± 0.29	–	–
QIGCKLPDDYRCSYRIHNGQKLVV [FBXO3]	2.06 ± 0.26	2.18 ± 0.24	–	–
AESWCYTQVKVVKFSYMWTINNFS [SPOPL]	3.24 ± 0.56	3.01 ± 0.5	–	–
DCDTSSICEDSFDGRSLSKLNLCE [SCARA5]	4.84 ± 0.16	5.05 ± 0.12	–	–
LNLTRKLAQQLCTALLFLATPELS [DYRK1B]	2.9 ± 0.51	3.21 ± 0.47	–	–
KSSIIPFRALKRPLQFLGLFENSL [ZER1]	1.9 ± 0.5	2.31 ± 0.45	–	–
SARFWIPGEPNNAGNNEHCGNIKA [CD207]	4.03 ± 0.47	4.18 ± 0.41	–	–
KIRLRCQKGIPPSLRGRAWQYLSG [TBC1D10A]	2.21 ± 0.094	2.09 ± 0.23	–	–
EWETEVEMDKLRASDIMEPNLTYV [CLCN6]	3.85 ± 0.32	4.08 ± 0.19	–	–
PEMNGNGAVAPMDFTTAAEDQPIN [NOL4L]	5.35 ± 0.26	5.47 ± 0.15	–	–
CTDFCLRNLDGTLGYLLDKETLRL [ZER1]	2 ± 0.23	2.13 ± 0.17	–	–
CKVGASSDPCGQLRPTLLLTSLHH [PNLIPRP1]	2.1 ± 0.24	2.22 ± 0.097	–	–
ELFVREPTGRLPALVRWWNGIGAV [MYORG]	2.26 ± 0.38	2.4 ± 0.41	–	–
RDRFKSFQRRNMIEPRERAKFKRK [NOP53]	4.11 ± 0.47	4.54 ± 0.35	–	–
YDYPEEEQLSGAGYRVSAALEEAD [EID1]	5.38 ± 0.31	5.22 ± 0.32	–	–

Sequence	protein stability index [1]	protein stability index [2]	protein stability index [3]	protein stability index [4]
SEGEAMEICSEPVAASPAPAGERR [ZNF511]	5.38 ± 0.28	5.22 ± 0.27	–	–
IGDFGISKILSSKSKAYTVVGTPC [NEK8]	2.35 ± 0.12	2.47 ± 0.34	–	–
IEAKEACDWLRATGFPQYAQLYED [DLC1]	3.21 ± 0.43	3.31 ± 0.083	–	–
ATGKHYGASSCDGCKGFFRRSVRK [HNF4A]	3.35 ± 0.19	3.73 ± 0.21	–	–
PLDAGEYCVPRGNRRRFRVRQPIL [BEX1]	3.47 ± 0.42	3.63 ± 0.25	–	–
LSSEVLVGDLMSPFDQSGLGAEES [ATF4]	5 ± 0.48	4.84 ± 0.18	–	–
TRQLSEENANLQEYVEKETQEKKR [MTUS2]	5.33 ± 0.14	5.56 ± 0.12	–	–
TLTVFPPEETTPSPSRESPLSAP [KLHL13]	–	–	5.16 ± 0.15	5.18 ± 0.08
DNLLQEMLLGGSPSDAPHAHHPLH [HNF4A]	3.97 ± 0.49	4 ± 0.14	–	–
SARCVVSFNILVEDRVKLFGIEIE [PCDHGA10]	2.12 ± 0.68	1.95 ± 0.27	–	–
SHRAAGSGVSDYDYLDLDKMSLYS [TRIM9]	3.4 ± 0.21	3.44 ± 0.17	–	–
RGREAGPPQPMVPLAVENQAGGEG [PBXIP1]	5.27 ± 0.38	5.25 ± 0.16	–	–
VPKDQRLQAIKAAIMLLPDENREV [DLC1]	3.82 ± 0.18	3.85 ± 0.42	–	–
KEPPLLLGVLHPNTKLRQAERLFE [APMAP]	2.64 ± 0.38	2.78 ± 0.47	–	–
EEEDQHMKLSLGGSEMGLSSHLQS [KLHL13]	4.95 ± 0.12	4.91 ± 0.14	–	–
FPAEERARVLDRRGCSRVEGGGTS [ANKRD9]	4.42 ± 0.2	4.53 ± 0.28	–	–
EKTGPQLTSRIKGDWIGLYRHFLK [DENND6A]	2.15 ± 0.34	2.08 ± 0.21	–	–
LDAVENQLKWASWELHSLRHCDDD [ZNF24]	3.96 ± 0.12	4.03 ± 0.15	–	–
PTSPVQGTTPQISPSTLIGSLRTL [HDAC6]	3.77 ± 0.22	3.79 ± 0.26	–	–
ILGKVILWILHLLLECYIQYHHSK [TMEM192]	2.99 ± 0.51	2.9 ± 0.31	–	–
